Experimental data published in US20150259426A1 (Novartis, published 2015).

Experiments:
[1] = target: T1, cell-bound human DR5 (Colo205 and other human cell lines) (human, UniProt O14763 56-440); assay: cell-based or functional assay
[2] = target: T1, cell-bound human DR5 (Colo205 and other …); assay: cell-based or functional assay; remark: listed apart in the source
[3] = target: T2, hGITR (human, UniProt Q9Y5U5); assay: ELISA, receptor ECD from E. coli lysate on His capture plate;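 also: binding specificity screen across TNF receptor superfamily ectodomains, anti-V5 detection as expression reference, primary antibody incubation 1 h at room temperature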
T2 construct: extracellular domain, E. coli lysate captured on a His capture plate; Target named only on the sheet; the construct is not described in the text
T2 sequence (extracellular domain, looked up): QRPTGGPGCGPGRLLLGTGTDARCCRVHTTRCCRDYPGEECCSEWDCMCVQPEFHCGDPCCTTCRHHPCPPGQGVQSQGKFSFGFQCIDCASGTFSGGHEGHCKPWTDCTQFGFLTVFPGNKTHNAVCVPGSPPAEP

[4] = target: T3, TNFR1 extracellular domain (TNFRSF1A, Leu34-Thr211) (UniProt P19438 34-211); assay: as above
T3 construct: range 34-211; ECD cloned into pBadThioTopo; E. coli lysate on His capture plates
T3 sequence (looked up): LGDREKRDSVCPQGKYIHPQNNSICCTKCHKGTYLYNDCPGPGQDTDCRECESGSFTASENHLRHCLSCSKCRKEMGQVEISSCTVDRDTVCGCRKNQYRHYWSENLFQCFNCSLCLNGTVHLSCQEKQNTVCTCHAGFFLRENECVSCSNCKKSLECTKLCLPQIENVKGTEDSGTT

[5] = target: T4, TNFR3 extracellular domain (TNFRSF3, Pro30-Thr224) (UniProt P36941 30-224); assay: as above
T4 construct: range 30-224; ECD cloned into pBadThioTopo; E. coli lysate on His capture plates

[6] = target: T5, OX40 extracellular domain (TNFRSF4, Gly33-Gly212) (UniProt P43489 33-212); assay: as above
T5 construct: ECD cloned into pBadThioTopo; E. coli lysate on His capture plates
T5 sequence (looked up): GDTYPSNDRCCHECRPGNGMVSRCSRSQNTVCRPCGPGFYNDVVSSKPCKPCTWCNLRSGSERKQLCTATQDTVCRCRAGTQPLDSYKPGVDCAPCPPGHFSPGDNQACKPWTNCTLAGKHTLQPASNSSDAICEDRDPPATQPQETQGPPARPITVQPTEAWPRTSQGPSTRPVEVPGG

[7] = target: T6, CD40 extracellular domain (TNFRSF5, Val18-Leu192) (UniProt P25942 18-192); assay: as above
T6 construct: range 18-192; ECD cloned into pBadThioTopo; E. coli lysate on His capture plates

[8] = target: T7, FAS extracellular domain (TNFRSF6, Ser20-Gly175) (UniProt P25445 20-175); assay: as above
T7 construct: ECD cloned into pBadThioTopo; E. coli lysate on His capture plates
T7 sequence (looked up): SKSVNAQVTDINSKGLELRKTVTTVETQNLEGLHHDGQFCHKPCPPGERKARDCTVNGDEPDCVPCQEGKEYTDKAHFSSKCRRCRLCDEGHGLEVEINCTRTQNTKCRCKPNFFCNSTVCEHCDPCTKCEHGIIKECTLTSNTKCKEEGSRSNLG

[9] = target: T8, DcR3 (TNFRSF6B, Val27-Ala176) (UniProt O95407 27-176); assay: as above
T8 construct: range 27-176; ECD cloned into pBadThioTopo; E. coli lysate on His capture plates
T8 sequence (looked up): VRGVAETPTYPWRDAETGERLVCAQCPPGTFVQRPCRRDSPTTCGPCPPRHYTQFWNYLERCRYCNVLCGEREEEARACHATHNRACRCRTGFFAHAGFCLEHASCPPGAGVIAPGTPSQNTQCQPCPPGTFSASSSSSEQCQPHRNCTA

[10] = target: T9, CD27 extracellular domain (TNFRSF7, Thr21-Ser187) (UniProt P26842 21-187); assay: as above
T9 construct: range 21-187; ECD cloned into pBadThioTopo; E. coli lysate on His capture plates

[11] = target: T10, CD137 extracellular domain (TNFRSF9, Glu19-Ile188) (UniProt Q07011 19-188); assay: as above
T10 construct: range 19-188; ECD cloned into pBadThioTopo; E. coli lysate on His capture plates

[12] = target: T11, DcR2 extracellular domain (TNFRSF10D, Thr57-Thr198) (UniProt Q9UBN6 57-198); assay: as above
T11 construct: range 57-198; ECD cloned into pBadThioTopo; E. coli lysate on His capture plates
T11 sequence (looked up): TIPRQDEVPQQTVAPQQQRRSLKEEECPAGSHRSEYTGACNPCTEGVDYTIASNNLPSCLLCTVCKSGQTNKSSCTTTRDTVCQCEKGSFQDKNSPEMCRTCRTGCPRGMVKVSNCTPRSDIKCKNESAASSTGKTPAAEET

[13] = target: T12, OPG (TNFRSF11B, Lys17-Ile197) (UniProt O00300 17-197); assay: as above
T12 construct: range 17-197; ECD cloned into pBadThioTopo; E. coli lysate on His capture plates
T12 sequence (looked up): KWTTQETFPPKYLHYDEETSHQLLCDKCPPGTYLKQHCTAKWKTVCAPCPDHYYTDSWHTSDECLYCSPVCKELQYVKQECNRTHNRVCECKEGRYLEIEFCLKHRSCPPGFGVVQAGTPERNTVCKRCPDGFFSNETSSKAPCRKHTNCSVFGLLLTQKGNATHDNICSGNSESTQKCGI

[14] = target: T13, BAFFR extracellular domain (TNFRSF13C, Met1-Gly64) (UniProt Q96RJ3 1-64); assay: as above
T13 construct: range 1-64; ECD cloned into pBadThioTopo; E. coli lysate on His capture plates

[15] = target: T1, cell-bound human DR5 (Colo205 and other …); assay: FACS, periplasmic extract on Colo205 cells, anti-myc detection
[16] = target: T14, cynomolgus DR5-Fc fusion protein (cyno DR5 amino acids 56 to 213 fused with human IgG1 Fc) (cynomolgus; human); assay: SPR (Biacore), CM5 chip coated with cynomolgus DR5-Fc, 1 to 100 nM NB construct
[17] = target: T14, cynomolgus DR5-Fc fusion protein (cyno …); assay: ELISA, periplasmic extract, plate coated with cynomolgus DR5-Fc, anti-myc detection
[18] = target: T15, cell-bound cynomolgus DR5 (CHO-K1 cells transfected with the full length cynoDR5 gene) (cynomolgus); assay: FACS, periplasmic extract on CHO-K1 cells expressing cynomolgus DR5, anti-myc detection
T15 construct: whole, on cells

[19] = target: cynomolgus DR5 (construct used not stated) (cynomolgus); assay: SPR kinetics (Biacore), cynomolgus DR5
[20] = target: T15, cell-bound cynomolgus DR5 (CHO-K1 cells …); assay: FACS saturation binding, apparent KD, cell-bound cynomolgus DR5

T4 sequence (P36941 30-224 limits assumed): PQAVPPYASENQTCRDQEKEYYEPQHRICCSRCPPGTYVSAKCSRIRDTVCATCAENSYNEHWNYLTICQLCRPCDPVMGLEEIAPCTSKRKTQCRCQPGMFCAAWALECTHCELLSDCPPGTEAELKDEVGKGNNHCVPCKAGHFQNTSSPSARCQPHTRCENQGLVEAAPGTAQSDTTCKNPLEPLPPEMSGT
T9 sequence (P26842 21-187 limits assumed): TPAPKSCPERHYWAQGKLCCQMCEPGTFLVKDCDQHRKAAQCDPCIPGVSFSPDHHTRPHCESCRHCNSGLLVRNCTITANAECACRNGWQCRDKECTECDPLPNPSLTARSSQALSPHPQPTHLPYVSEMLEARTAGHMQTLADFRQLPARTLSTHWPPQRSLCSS
T13 sequence (Q96RJ3 1-64 limits assumed): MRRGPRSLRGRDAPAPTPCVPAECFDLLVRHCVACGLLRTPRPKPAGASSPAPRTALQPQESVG
T6 sequence (P25942 18-192 limits assumed): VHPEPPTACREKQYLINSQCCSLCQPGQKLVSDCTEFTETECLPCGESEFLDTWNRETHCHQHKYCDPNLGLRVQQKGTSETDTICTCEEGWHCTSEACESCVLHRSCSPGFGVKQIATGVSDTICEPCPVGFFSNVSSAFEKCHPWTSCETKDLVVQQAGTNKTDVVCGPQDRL
T10 sequence (Q07011 19-188 limits assumed): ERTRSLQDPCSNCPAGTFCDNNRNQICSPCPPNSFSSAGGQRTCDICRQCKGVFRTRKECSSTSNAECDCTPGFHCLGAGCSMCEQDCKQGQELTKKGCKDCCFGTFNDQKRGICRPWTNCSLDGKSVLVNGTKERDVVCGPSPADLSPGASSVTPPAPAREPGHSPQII

B1: 7A12 tetra (tetravalent anti-DR5 NB construct) (other)
chain: EVQLVESGGGLVQAGGSLRLSCAASGRTFSNYAMGWFRQAPGKEREFVAALNWSGGSTYYVDSVKGRFTISRDNAKNTVYLQMNSLKPEDTAVYYCAAAGSFSLGGRPYGDDYWGKGTLVTVSSGGGGSGGGGSGGGGSGGGGSGGGGSGGGGSGGGGSEVQLVESGGGLVQAGGSLRLSCAASGRTFSNYAMGWFRQAPGKEREFVAALNWSGGSTYYVDSVKGRFTISRDNAKNTVYLQMNSLKPEDTAVYYCAAAGSFSLGGRPYGDDYWGKGTLVTVSSGGGGSGGGGSGGGGSGGGGSGGGGSGGGGSGGGGSEVQLVESGGGLVQAGGSLRLSCAASGRTFSNYAMGWFRQAPGKEREFVAALNWSGGSTYYVDSVKGRFTISRDNAKNTVYLQMNSLKPEDTAVYYCAAAGSFSLGGRPYGDDYWGKGTLVTVSSGGGGSGGGGSGGGGSGGGGSGGGGSGGGGSGGGGSEVQLVESGGGLVQAGGSLRLSCAASGRTFSNYAMGWFRQAPGKEREFVAALNWSGGSTYYVDSVKGRFTISRDNAKNTVYLQMNSLKPEDTAVYYCAAAGSFSLGGRPYGDDYWGKGTLVTVSS
notes: four VHH units in one chain joined by GlySer linkers; not shown: C-terminal c-myc/His6 tag from vector pAX51
In the case of B1, the “IC50, cell survival, 184A1” value [1] is reported as no less than 20 nM, the “IC50, cell survival, A549” value [1] is reported as no less than 20 nM and the “IC50, cell survival, ARPE-19” value [1] is reported as no less than 20 nM. For the same binder, the “IC50, cell survival, BxPC-3” value [1] was 0.023 nM, the “IC50, cell survival, Colo205” value [1] was 0.0066 nM and the “IC50, cell survival, H226” value [1] was no less than 20 nM. For the same binder, the “IC50, cell survival, H2052” value [1] was 0.033 nM, the “IC50, cell survival, H2122” value [1] was 0.0036 nM and the “IC50, cell survival, HAAE-1” value [1] was no less than 20 nM. For the same binder, the “IC50, cell survival, Huvec” value [1] was no less than 20 nM, the “IC50, cell survival, Jurkat” value [1] was 0.037 nM and the “IC50, cell survival, M30” value [1] was no less than 20 nM. For the same binder, the “IC50, cell survival, Malme-3” value [1] was no less than 20 nM, the “IC50, cell survival, MiaPaCa-2” value [1] was 0.041 nM and the “IC50, cell survival, Molt4” value [1] was no less than 20 nM. For the same binder, the “IC50, cell survival, Panc-1” value [1] was no less than 20 nM, the “IC50, cell survival, WI-38” value [1] was no less than 20 nM and the “EC50, caspase 3/7 in Colo205 tumor after a single dose in mice, indirect response model” value [2] was 1.41 ng/mg tissue. B1: no binding (tested: not stated) [3]; no binding (tested: not stated) [4]; no binding (tested: not stated) [5]. B1: no binding (tested: not stated) [6]; no binding (tested: not stated) [7]; no binding (tested: not stated) [8]. B1: no binding (tested: not stated) [9]; no binding (tested: not stated) [10]; no binding (tested: not stated) [11]. B1: no binding (tested: not stated) [12]; no binding (tested: not stated) [13]; no binding (tested: not stated) [14].

B2: 7A12 (monomeric anti-DR5 NB construct) (VHH)
VHH: EVQLVESGGGLVQAGGSLRLSCAASGRTFSNYAMGWFRQAPGKEREFVAALNWSGGSTYYVDSVKGRFTISRDNAKNTVYLQMNSLKPEDTAVYYCAAAGSFSLGGRPYGDDYWGKGTLVTVSS
notes: llama VHH; periplasmic extract or purified monovalent material from E. coli; not shown: C-terminal c-myc tag and (His)6 tag coded by the vector
With B2 the mean count fluorescence [15] was 1100, the Kd [16] was 7.1 nM and the ABS405 nm [17] was 0.341 ABS405 nm. The mean count fluorescence [18] was 24500.

B3: 10F1 (monomeric anti-DR5 NB construct) (VHH)
VHH: EVQLVESGGGLVQPGGSLRLSCAASGFTFSRYWMYWVRQAPGKGLEWVSAINSGGGDTYYRDSVRGRFTISRDNFKNTLYLQMNSLKSEDTAVYYCAKAEGPPTFSLIRTMTVDPGAQGTQVTVSS
notes: as for B2
Binder B3 has a mean count fluorescence [15] of 125, a Kd [16] of 140 nM and an ABS405 nm [17] of 0.124 ABS405 nm. The mean count fluorescence [18] was 1630.

B4: 11D1 (monomeric anti-DR5 NB construct) (VHH)
VHH: EVQLVESGGGLVQPGGSLRLSCAASGSIDSINNMGWYRQAPGKQRELVAEITPRGRTNYADSEKSRFTISRDNAKRTVNLQMNSLKPEDTAVYYCNAEVRERGTSWYRPDYWGQGTQVTVSS
notes: as for B2
Binder B4 has a mean count fluorescence [15] of 919, a Kd [16] of 220 nM and an ABS405 nm [17] of 0.213 ABS405 nm. For the same binder, the mean count fluorescence [18] was 417.

B5: 4E6 (monomeric anti-DR5 NB construct) (VHH)
VHH: EVQLVESGGGSVQAGDSLRLSCAASGRTFGSIRVGWFRQTPGKEREFVAAINRNDGTTYYADSVKGRFTISRDNAKNTVYMQMASLKPEDTAVYYCAAGLQYNRSADRVPVGAVYWGQGTQVTVSS
notes: llama VHH; periplasmic extract or purified monovalent material from E. coli; also called 4E6 parent; wild type 4E6; not shown: C-terminal c-myc tag and (His)6 tag coded by the vector
For B5, the Kd [19] was 5.5 nM, the mean count fluorescence [15] was 972 and the Kd [20] was 7.3 nM. The Kd [16] was 16 nM, the ABS405 nm [17] was 0.313 ABS405 nm and the mean count fluorescence [18] was 2870.

B6: 4E6-Hu (monovalent humanized, N-glycosylation knock-out variant of 4E6) (VHH)
VHH: EVQLLESGGGLVQPGGSLRLSCAASGRTFGSIRVGWFRQAPGKGREFVSAINRNDGTTYYADSVKGRFTISRDNSKNTVYLQMNSLRPEDTAVYYCAAGLQYNRAADRVPVGAVYWGQGTLVTVSS
notes: produced in E. coli and purified
For B6, the Kd [19] was 1.6 nM and the Kd [20] was 8.8 nM.
